# Measurements as given in paper PMC2639713.
# T1: mini-vRNAP K176C/S885C (Bacteriophage N4 (coliphage), UniProt Q859P9 998-2103, K1173C;S1882C)
# T1 sequence: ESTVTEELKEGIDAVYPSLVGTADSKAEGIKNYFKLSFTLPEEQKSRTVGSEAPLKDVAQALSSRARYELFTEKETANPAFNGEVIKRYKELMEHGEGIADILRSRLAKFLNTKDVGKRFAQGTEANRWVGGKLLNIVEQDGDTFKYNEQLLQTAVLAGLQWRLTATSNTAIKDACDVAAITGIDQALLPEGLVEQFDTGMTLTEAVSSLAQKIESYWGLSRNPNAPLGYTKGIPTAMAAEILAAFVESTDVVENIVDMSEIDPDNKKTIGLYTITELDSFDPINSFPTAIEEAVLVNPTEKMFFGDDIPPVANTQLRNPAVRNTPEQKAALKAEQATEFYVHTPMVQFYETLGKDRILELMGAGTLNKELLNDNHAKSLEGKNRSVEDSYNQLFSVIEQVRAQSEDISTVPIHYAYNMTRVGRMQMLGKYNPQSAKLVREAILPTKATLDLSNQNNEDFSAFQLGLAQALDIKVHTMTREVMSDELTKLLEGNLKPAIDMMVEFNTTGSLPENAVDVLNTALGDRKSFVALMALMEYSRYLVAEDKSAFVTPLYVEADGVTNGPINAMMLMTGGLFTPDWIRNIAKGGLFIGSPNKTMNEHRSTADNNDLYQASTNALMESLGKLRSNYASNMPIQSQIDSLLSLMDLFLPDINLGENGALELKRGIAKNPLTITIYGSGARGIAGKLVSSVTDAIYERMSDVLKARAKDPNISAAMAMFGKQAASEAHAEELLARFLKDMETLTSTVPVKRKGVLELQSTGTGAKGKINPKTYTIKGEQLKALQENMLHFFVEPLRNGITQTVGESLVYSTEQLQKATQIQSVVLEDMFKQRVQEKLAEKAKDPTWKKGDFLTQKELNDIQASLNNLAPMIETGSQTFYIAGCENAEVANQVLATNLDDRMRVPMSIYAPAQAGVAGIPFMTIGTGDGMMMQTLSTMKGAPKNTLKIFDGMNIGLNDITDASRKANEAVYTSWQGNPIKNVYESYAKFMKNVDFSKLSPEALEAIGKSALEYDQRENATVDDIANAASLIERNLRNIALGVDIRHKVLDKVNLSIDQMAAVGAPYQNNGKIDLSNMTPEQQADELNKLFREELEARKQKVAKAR
# Target: T1, mini-vRNAP K176C/S885C
# Test: UV cross-linking
binder,measurement,value
"GAAGCGTAGCTTC (structured_DNA, 5-iodo-dU at position 7 (-11), written as T) [13mer -11 5-IdU promoter hairpin (-17 to -5)]",binding result,binds
